From patent publication US20140141011A1 (SCHERING, published 2014)
Values joined by “and” are separate entries in the source; they are usually repeats but may differ in a detail not shown here. Identical values can stand only once.

Tests used:
[1] = molecular target: T1, Human TSLP (expression host not stated) (human, UniProt Q969D9 29-159); assay: cell-based or functional assay
[2] = molecular target: T2, Recombinant human TSLP, expressed in E. coli (human, UniProt Q969D9 29-159); assay: KinExA, solution equilibrium, beads coated with biotinylated human TSLP; antigen R&D Systems 1398-TS
T2 construct: also called human TSLP E. coli; E. coli-B (biotinylated)

[3] = molecular target: T1, Human TSLP (expression host not stated, …); assay: summary of Tables 10 and 11 (BIAcore, KinExA, Ba/F3 assay)
Cynomolgus monkey TSLP [4] = molecular target: T3, Cynomolgus monkey TSLP (cynomolgus monkey, UniProt A0A7N9CAT7 29-159); assay: SPR, BIAcore T100, as in Example 5 (TSLP immobilized)
T3 construct: also called cyno TSLP; cynoTSLP

[5] = molecular target: T2, Recombinant human TSLP, expressed in E. …; assay: ELISA, TSLP coated on plate, antibody titrated; E. coli-B (biotinylated TSLP)
[6] = molecular target: T4, Recombinant human TSLP, expressed in HEK293 (human, UniProt Q969D9 29-159); assay: ELISA, mean of the 3 rows above (HEK293-B, HEK293, HEK293-F); mean of n = 3: HEK293-B, HEK293 and HEK293-F human TSLP
T4 construct: also called human TSLP HEK293; HEK293-B (biotinylated)

[7] = molecular target: T4, Recombinant human TSLP, expressed in …; assay: ELISA, TSLP coated on plate, antibody titrated; HEK293
[8] = molecular target: T1, Human TSLP (expression host not stated, …); assay: ELISA, mean of all 5 rows on human TSLP (HEK293 and E. coli pooled)
[9] = molecular target: T4, Recombinant human TSLP, expressed in …; assay: KinExA, solution equilibrium, beads coated with biotinylated human TSLP; TSLP from HEK293
[10] = molecular target: T2, Recombinant human TSLP, expressed in E. …; assay: KinExA, solution equilibrium, beads coated with biotinylated human TSLP; antigen R&D Systems 1398-TS; KinExA, not BIAcore
Cynomolgus monkey TSLP [11] = molecular target: T3, Cynomolgus monkey TSLP; assay: cell-based or functional assay
[12] = molecular target: T2, Recombinant human TSLP, expressed in E. …; assay: cell-based or functional assay
[13] = molecular target: T4, Recombinant human TSLP, expressed in …; assay: cell-based or functional assay
Cynomolgus monkey TSLP [14] = molecular target: T3, Cynomolgus monkey TSLP; assay: SPR, BIAcore T100, TSLP amine-coupled to CM5 chip, antibody injected, bivalent analyte model
[15] = molecular target: T1, Human TSLP (expression host not stated, …); assay: as above
[16] = molecular target: T2, Recombinant human TSLP, expressed in E. …; assay: KinExA, solution equilibrium, beads coated with biotinylated human TSLP; TSLP from E. coli
[17] = molecular target: T1, Human TSLP (expression host not stated, …); assay: SPR, BIAcore T100, as in Example 5 (TSLP immobilized)
[18] = molecular target: T4, Recombinant human TSLP, expressed in …; assay: ELISA, TSLP coated on plate, antibody titrated; HEK293-B (biotinylated TSLP)
[19] = molecular target: T2, Recombinant human TSLP, expressed in E. …; assay: ELISA, TSLP coated on plate, antibody titrated; E. coli
Cynomolgus monkey TSLP [20] = molecular target: T3, Cynomolgus monkey TSLP; assay: ELISA, mean of the 6 rows above (cyno TSLP from HEK293)
[21] = molecular target: T1, Human TSLP (expression host not stated, …); assay: ELISA, mean of all 19 rows on human TSLP (HEK293 and E. coli pooled)
[22] = molecular target: T4, Recombinant human TSLP, expressed in …; assay: ELISA, mean of the 12 rows above (HEK293, including HEK293-B and HEK293-F)
[23] = molecular target: T4, Recombinant human TSLP, expressed in …; assay: ELISA, direct coat of 200 ng TSLP instead of 100 ng, antibody titrated; HEK293
[24] = molecular target: T2, Recombinant human TSLP, expressed in E. …; assay: ELISA, mean of the 7 rows above (E. coli, including E. coli-B)
[25] = molecular target: T2, Recombinant human TSLP, expressed in E. …; assay: ELISA, direct coat of 200 ng TSLP instead of 100 ng, antibody titrated; E. coli
[26] = molecular target: T1, Human TSLP (expression host not stated, …); assay: ELISA, mean of the 5 rows above on human TSLP (HEK293 and E. coli pooled)

B1: Cyno-ized anti-human TSLP 23B12 antibody (antibody)
heavy: SQVQLVESGGGVVQPGRSLRLSCAASGYIFTDYAMHWVRQAPGKGLEWVATFIPLLDTSDYNQNFKGRFTISRDNSKNTLYLQMNSLRAEDTAVYYCARMGVTHSYVMDAWGQGTLVTVSSASTKGPSVFPLAPSSRSTSESTAALGCLVKDYFPEPVTVSWNSGSLTSGVHTFPAVLQSSGLYSLSSVVTVPSSSLGTQTYVCNVNHKPSNTKVDKRVEIKTCGGGSKPPTCPPCPAPELLGGPSVFLFPPKPKDTLMISRTPEVTCVVVDVSQEDPDVKFNWYVNGAEVHHAQTKPRETQYNSTYRVVSVLTVTHQDWLNGKEYTCKVSNKALPAPIQKTISKDKGQPREPQVYTLPPSREELTKNQVSLTCLVKGFYPSDIVVEWESSGQPENTYKTTPPVLDSDGSYFLYSKLTVDKSRWQQGNVFSCSVMHEALHNHYTQKSLSLSPGK
light: DIQMTQSPSSLSASVGDRVTITCRASQPISISVHWYQQKPGKAPKLLIYFASQSISGVPSRFSGSGSGTDFTLTISSLQPEDFATYYCQQTFSLPYTFGQGTKVEIKRTVAAPSVFIFPPSEDQVKSGTVSVVCLLNNFYPREASVKWKVDGVLKTGNSQESVTEQDSKDNTYSLSSTLTLSSTDYQSHNVYACEVTHQGLSSPVTKSFNRGEC
notes: Rat 23B12 CDRs on human VL kappa-I / VH-III frameworks fused to cynomolgus IgG constant domains, produced in CHO cells; also called cy23B12; Cynoized anti hTSLP mAb 23B12 (782+MAFA19/781MAFA7)
- EC50, inhibition of TSLP-induced proliferation of Ba/F3 transfectants; TSLP hu, TSLPR cyno [1]: 0.03 nM and 0.05 nM
- Kd [2]: 0.052 nM
- fold reduction in binding against hu23B12 [3]: 5 fold
- fold reduction in binding against parental rat 23B12 [3]: 10 fold
- Kd (Cynomolgus monkey TSLP [4]): 1.16 nM and 2.51 nM

B2: Rat anti-human TSLP antibody 23B12 (antibody, V domains shown)
VH: EEKLQQSGDDLVRPGAAVKMSCKASGYIFTDYAMHWVKQRPGQGLEWIGTFIPLLDTSDYNQNFKGRATLTADKSSNTAYMELSRLTSEDSAVYYCARMGVTHSYVMDAWGQGASVTVSS
VL: DIVLTQSPATLSVTPGESVSLSCRASQPISISVHWFQQKSNESPRLLIKFASQSISGIPSRFSGSGSGTDFTLNINRVESEDFSVYYCQQTFSLPYTFGTGTKLELKR
notes: Parental rat monoclonal antibody purified from hybridoma supernatant; the rat constant regions are not (a rat IgG2a isotype control is used beside it; the VL is of the kappa subclass); also called r23B12; rat 23B12
- EC50 [5]: 0.4 nM and 0.39 nM
- EC50 [6]: 0.47 nM
- EC50 [7]: 0.37 nM
- EC50 [8]: 0.44 nM
- Kd [9]: 0.22 pM
- Kd [10]: 0.47 pM
- EC50 (mean of the 4 rows above), inhibition of TSLP-induced proliferation of Ba/F3-TSLPR-IL7Ra cells; TSLP cyno, HEK293 (Cynomolgus monkey TSLP [11]): 0.56 nM
- EC50, inhibition of TSLP-induced proliferation of Ba/F3-TSLPR-IL7Ra cells (Alamar Blue); TSLP cyno, HEK293 (Cynomolgus monkey TSLP [11]): 0.45 nM and 0.42 nM and 0.61 nM and 0.77 nM
- EC50 (mean of the 8 rows above), inhibition of TSLP-induced proliferation of Ba/F3-TSLPR-IL7Ra cells; TSLP human, E. coli [12]: 3.01 nM
- EC50 (mean of the 5 rows above), inhibition of TSLP-induced proliferation of Ba/F3-TSLPR-IL7Ra cells; TSLP human, HEK293 [13]: 0.11 nM
- Kd (Cynomolgus monkey TSLP [14]): 0.086 nM
- Kd [15]: 0.064 nM
- Kd [16]: 0.47 pM
- Kd (Cynomolgus monkey TSLP [4]): 0.086 nM and 0.112 nM
- Kd [17]: 0.064 nM and 0.126 nM and 0.114 nM
- EC50 [18]: 0.79 nM

B3: hu-cy: humanized 23B12 VL/VH on cynomolgus constant domains (antibody)
heavy: QVQLVQSGAEVKKPGASVKVSCKASGYIFTDYAMHWVRQAPGQGLEWMGTFIPLLDTSDYNQNFKGRVTMTTDTSTSTAYMELRSLRSDDTAVYYCARMGVTHSYVMDAWGQGTLVTVSSASTKGPSVFPLAPSSRSTSESTAALGCLVKDYFPEPVTVSWNSGSLTSGVHTFPAVLQSSGLYSLSSVVTVPSSSLGTQTYVCNVNHKPSNTKVDKRVEIKTCGGGSKPPTCPPCPAPELLGGPSVFLFPPKPKDTLMISRTPEVTCVVVDVSQEDPDVKFNWYVNGAEVHHAQTKPRETQYNSTYRVVSVLTVTHQDWLNGKEYTCKVSNKALPAPIQKTISKDKGQPREPQVYTLPPSREELTKNQVSLTCLVKGFYPSDIVVEWESSGQPENTYKTTPPVLDSDGSYFLYSKLTVDKSRWQQGNVFSCSVMHEALHNHYTQKSLSLSPGK
light: EIVLTQSPGTLSLSPGERATLSCRASQPISISVHWYQQKPGQAPRLLIYFASQSISGIPDRFSGSGSGTDFTLTISRLEPEDFAVYYCQQTFSLPYTFGQGTKVEIKRTVAAPSVFIFPPSEDQVKSGTVSVVCLLNNFYPREASVKWKVDGVLKTGNSQESVTEQDSKDNTYSLSSTLTLSSTDYQSHNVYACEVTHQGLSSPVTKSFNRGEC
notes: also called hu-cy23B12; Cynoized anti hTSLP mAb 23B12 (huV-CynoC chimera)
- EC50, inhibition of TSLP-induced proliferation of Ba/F3 transfectants; TSLP hu, TSLPR hu [1]: 5.3 nM
- Kd [2]: 0.0014 nM
- Kd (Cynomolgus monkey TSLP [4]): 0.114 nM
- Kd [17]: 0.106 nM

B4: cy-hu: cyno-ized 23B12 VL/VH on human constant domains (antibody)
heavy: not shown
light: DIQMTQSPSSLSASVGDRVTITCRASQPISISVHWYQQKPGKAPKLLIYFASQSISGVPSRFSGSGSGTDFTLTISSLQPEDFATYYCQQTFSLPYTFGQGTKVEIKRTVAAPSVFIFPPSDEQLKSGTASVVCLLNNFYPREAKVQWKVDNALQSGNSQESVTEQDSKDSTYSLSSTLTLSKADYEKHKVYACEVTHQGLSSPVTKSFNRGEC
notes: also called cy-hu23B12; Cynoized anti hTSLP mAb 23B12 (782+hIgG1/781hukappa)
- EC50, inhibition of TSLP-induced proliferation of Ba/F3 transfectants; TSLP hu, TSLPR hu [1]: 3.9 nM
- Kd [2]: 0.063 nM
- Kd (Cynomolgus monkey TSLP [4]): 1.2 nM
- Kd [17]: 0.556 nM

B5: Humanized anti hu TSLP mAb 23B12 (VL Y49) (antibody, human IgG1, kappa)
heavy: not shown
light: EIVLTQSPGTLSLSPGERATLSCRASQPISISVHWYQQKPGQAPRLLIYFASQSISGIPDRFSGSGSGTDFTLTISRLEPEDFAVYYCQQTFSLPYTFGQGTKVEIKRTVAAPSVFIFPPSDEQLKSGTASVVCLLNNFYPREAKVQWKVDNALQSGNSQESVTEQDSKDSTYSLSSTLTLSKADYEKHKVYACEVTHQGLSSPVTKSFNRGEC
notes: also called hu23B12(VL Y49); hu23B12
- EC50 [19]: 0.11 nM and 0.06 nM
- EC50 (Cynomolgus monkey TSLP [20]): 0.31 nM
- EC50, inhibition of TSLP-induced proliferation of Ba/F3 transfectants; TSLP hu, TSLPR hu [1]: 7.6 nM
- EC50 [5]: 0.064 nM and 0.085 nM
- Kd [2]: 0.0017 nM
- EC50 [21]: 0.11 nM
- EC50 [22]: 0.14 nM
- EC50 [23]: 0.073 nM
- Kd [9]: 2.1 pM
- EC50 [24]: 0.07 nM
- EC50 [25]: 0.061 nM and 0.029 nM
- Kd (Cynomolgus monkey TSLP [14]): 0.132 nM
- Kd [15]: 0.111 nM
- Kd [16]: 1.7 pM
- Kd (Cynomolgus monkey TSLP [4]): 0.132 nM
- Kd [17]: 0.111 nM
- EC50 [18]: 0.22 nM

B6: Humanized anti hu TSLP mAb 23B12 (VL K49) (antibody, human IgG1, kappa, V domains shown)
VH: QVQLVQSGAEVKKPGASVKVSCKASGYIFTDYAMHWVRQAPGQGLEWMGTFIPLLDTSDYNQNFKGRVTMTTDTSTSTAYMELRSLRSDDTAVYYCARMGVTHSYVMDAWGQGTLVTVSS
VL: EIVLTQSPGTLSLSPGERATLSCRASQPISISVHWYQQKPGQAPRLLIKFASQSISGIPDRFSGSGSGTDFTLTISRLEPEDFAVYYCQQTFSLPYTFGQGTKVEIKR
notes: Light chain variant of hu23B12 with K at position 49; human IgG1 / kappa; also called hu23B12(VL K49)
- EC50 [5]: 0.038 nM and 0.05 nM
- EC50 [7]: 0.034 nM
- EC50 [26]: 0.05 nM
- Kd [9]: 1 pM
- EC50 [18]: 0.12 nM
